Experimental data reported in publication PMC9881146.

Key:
[1] = target: Cdc13_(OB234), purified, large tag removed (C. glabrata); experiment: AUC
[2] = target: OB1 ΔC-ter A40W D94A (C. glabrata); experiment: AUC
[3] = target: Cdc13_(OB23) (H10-TEV-Cdc13_(OB23)) (C. glabrata); experiment: mass photometry
[4] = target: Cdc13_(OB23) (H10-TEV-Cdc13_(OB23)) (C. glabrata); experiment: SEC
[5] = target: Cdc13_(OB23) (H10-TEV-Cdc13_(OB23)) (C. glabrata); experiment: AUC
[6] = target: OB1 ΔC-ter Q39A A40W (C. glabrata); experiment: AUC
[7] = target: OB1 ΔC-ter A40W (C. glabrata); experiment: AUC
[8] = target: Cdc13 OB1 domain (Strep-TEV-Strep-OB1, residues 1-176) (C. glabrata); experiment: AUC
[9] = target: Cdc13 OB1 domain without its C-terminal tail (OB1 ΔC-ter) (C. glabrata); experiment: AUC
[10] = target: Cdc13 OB2 domain (Strep-TEV-Strep-OB2, residues 260-396) (C. glabrata); experiment: SEC
[11] = target: Cdc13_(OB24) (H10-TEV-Cdc13_(OB24)) (C. glabrata); experiment: mass photometry
[12] = target: Cdc13_(OB24) (H10-TEV-Cdc13_(OB24)) (C. glabrata); experiment: SEC
[13] = target: Cdc13_(OB24) (H10-TEV-Cdc13_(OB24)) (C. glabrata); experiment: AUC
[14] = target: OB1 ΔC-ter Q39A (C. glabrata); experiment: AUC
OB3 = target: T1, OB3 (Candida glabrata, UniProt Q6FT40 401-593); experiment: EMSA
T1 sequence: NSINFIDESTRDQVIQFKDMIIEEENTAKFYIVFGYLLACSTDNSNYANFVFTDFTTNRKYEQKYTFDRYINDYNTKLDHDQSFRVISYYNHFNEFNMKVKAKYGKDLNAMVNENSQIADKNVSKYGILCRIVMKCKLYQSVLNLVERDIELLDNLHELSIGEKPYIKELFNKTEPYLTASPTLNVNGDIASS

Cdc13OB34 = target: T2, Cdc13OB34 (Candida glabrata, UniProt Q6FT40 401-753); experiment: fluorescence polarization
T2 sequence: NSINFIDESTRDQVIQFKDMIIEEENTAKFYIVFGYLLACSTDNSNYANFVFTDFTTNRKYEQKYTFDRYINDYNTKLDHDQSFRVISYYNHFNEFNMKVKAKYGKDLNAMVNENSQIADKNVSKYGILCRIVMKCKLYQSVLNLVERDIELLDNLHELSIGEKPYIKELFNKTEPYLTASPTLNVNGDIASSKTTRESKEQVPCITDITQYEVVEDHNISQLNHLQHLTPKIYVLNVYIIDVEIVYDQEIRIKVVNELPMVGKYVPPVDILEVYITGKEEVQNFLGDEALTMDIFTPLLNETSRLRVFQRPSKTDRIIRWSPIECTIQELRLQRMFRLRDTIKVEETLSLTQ

Cdc13OB23 = target: T3, Cdc13OB23 (Candida glabrata, UniProt Q6FT40 260-593); experiment: fluorescence polarization
T3 sequence: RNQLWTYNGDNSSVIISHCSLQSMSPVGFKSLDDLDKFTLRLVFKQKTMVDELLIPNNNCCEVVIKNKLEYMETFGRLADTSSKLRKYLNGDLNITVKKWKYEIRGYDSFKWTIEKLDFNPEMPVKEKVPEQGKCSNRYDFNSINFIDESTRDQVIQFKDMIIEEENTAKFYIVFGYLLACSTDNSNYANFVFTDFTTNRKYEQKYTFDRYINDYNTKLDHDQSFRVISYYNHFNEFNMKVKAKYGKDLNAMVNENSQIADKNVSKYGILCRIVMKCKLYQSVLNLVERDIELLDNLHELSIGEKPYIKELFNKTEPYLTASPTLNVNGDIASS

Cdc13OB234 = target: T4, Cdc13OB234 (Candida glabrata, UniProt Q6FT40 260-753); experiment: fluorescence polarization
T4 sequence: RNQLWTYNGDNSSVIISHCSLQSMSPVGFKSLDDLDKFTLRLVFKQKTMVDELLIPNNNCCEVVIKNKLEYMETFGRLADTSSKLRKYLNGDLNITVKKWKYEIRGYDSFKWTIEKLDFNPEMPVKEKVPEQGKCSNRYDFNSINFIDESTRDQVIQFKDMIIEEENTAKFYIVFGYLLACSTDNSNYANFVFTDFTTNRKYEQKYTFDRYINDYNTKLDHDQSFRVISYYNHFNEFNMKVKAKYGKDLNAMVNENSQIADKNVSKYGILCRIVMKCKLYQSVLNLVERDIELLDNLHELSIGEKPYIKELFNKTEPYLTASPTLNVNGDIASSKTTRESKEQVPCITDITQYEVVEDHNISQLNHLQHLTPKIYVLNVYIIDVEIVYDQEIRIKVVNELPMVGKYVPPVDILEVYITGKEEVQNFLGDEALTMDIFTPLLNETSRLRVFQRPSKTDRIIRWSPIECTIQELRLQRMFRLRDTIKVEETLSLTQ

Cdc13_(OB234), purified, large tag removed (domain or fragment)
stoichiometry N [1]: 2

OB1 ΔC-ter A40W D94A (domain or fragment)
relative abundance of species 1 [2]: 97% | relative abundance of species 2 [2]: 3%

Cdc13_(OB23) (H10-TEV-Cdc13_(OB23)) (domain or fragment)
stoichiometry N [3]: 2 | stoichiometry N [4]: 2 | stoichiometry N [5]: 2

OB1 ΔC-ter Q39A A40W (domain or fragment)
relative abundance of species 1 [6]: 97.8% | relative abundance of species 2 [6]: 2.2%

OB1 ΔC-ter A40W (domain or fragment)
relative abundance of species 1 [7]: 97.9% | relative abundance of species 2 [7]: 2.1%

Cdc13 OB1 domain (Strep-TEV-Strep-OB1, residues 1-176) (domain or fragment)
relative abundance of species 1 (monomer) [8]: 72% | relative abundance of species 2 [8]: 4% | relative abundance of species 3 [8]: 3% | relative abundance of species 4 [8]: 4.5% | relative abundance of species 5 [8]: 2%

Cdc13 OB1 domain without its C-terminal tail (OB1 ΔC-ter) (domain or fragment)
relative abundance of species 1 [9]: 95% | relative abundance of species 2 [9]: 4% | relative abundance of species 3 [9]: 1%

Cdc13 OB2 domain (Strep-TEV-Strep-OB2, residues 260-396) (domain or fragment)
stoichiometry N [10]: 2

Cdc13_(OB24) (H10-TEV-Cdc13_(OB24)) (domain or fragment)
stoichiometry N [11]: 2 | stoichiometry N [12]: 2 | stoichiometry N [13]: 2

OB1 ΔC-ter Q39A (domain or fragment)
relative abundance of species 1 [14]: 95.8% | relative abundance of species 2 [14]: 3.1% | relative abundance of species 3 [14]: 1.1%

TTTTTTTTTTTTTTTTTTTTTTTTTTTTTTTTTTTTTTTTTTTTTTTT (ssDNA) [polyT]
binding result (OB3): no binding

TGTGGGGTCTGGGTGCTGTGGGGTCTGGGTGCTGTGGGGTCTGGGTGC (ssDNA) [6FAM-CgTelo]
Kd (Cdc13OB34): 299 ± 41 nM | Kd (Cdc13OB23): 28.5 ± 3.8 nM | Kd (Cdc13OB234): 13.5 ± 1.7 nM
